In the supplement of paper PMC9112550, “Optimization of the antimicrobial peptide Bac7 by deep mutational scanning” (BMC Biology, 2022):

tested on: Escherichia coli TOP10; assay: shrunken log2 fold change of peptide-encoding DNA abundance (4.5 h post-induction vs induction); higher = less antimicrobial activity (less host growth inhibition); conditions: time post-induction: 4.5 h; library: site-saturation at positions 5, 18, 19, 20
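Also: peptides expressed intracellularly from a pBAD plasmid library in pooled LB shake-flask culture, induced with 0.3% L-arabinose, DNA abundance read by NGS, three biological replicates, DESeq2 with apeglm shrinkage.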

Going from RRIRVRPPRLPRPRPRPSDCPRP to RRIRERPPRLPRPRPRPKKWPRP, the “shrunken log2 fold change” value rises from 0.234 to 2.71.

Compared with RRIRDRPPRLPRPRPRPLGNPRP, RRIRSRPPRLPRPRPRPFAQPRP is higher in “shrunken log2 fold change” value: -0.0332 for the first, 0.185 for the second.

Compared with RRIRLRPPRLPRPRPRPRWFPRP, RRIRQRPPRLPRPRPRPNNTPRP is lower in “shrunken log2 fold change” value: 0.602 for the first, -0.578 for the second.

First: RRIRLRPPRLPRPRPRPFVMPRP
Second: RRIRVRPPRLPRPRPRPPRCPRP
The “shrunken log2 fold change” value of the first is lower: -0.241 for the first, 0.324 for the second.

RRIRIRPPRLPRPRPRPETQPRP and RRIRDRPPRLPRPRPRPQNLPRP are within 0.2 log units of each other in “shrunken log2 fold change” value: 0.0575 for the first, 0.0232 for the second.

Compared with RRIRERPPRLPRPRPRPVCKPRP, RRIRTRPPRLPRPRPRPKFYPRP is lower in “shrunken log2 fold change” value: 0.0272 for the first, -0.272 for the second.

RRIRQRPPRLPRPRPRPHSHPRP and RRIRVRPPRLPRPRPRPAYEPRP are within 0.2 log units of each other in “shrunken log2 fold change” value: 0.0496 for the first, 0.0112 for the second.

First: RRIRFRPPRLPRPRPRPIAYPRP
Second: RRIRHRPPRLPRPRPRPQDTPRP
The “shrunken log2 fold change” value of the first is higher: -0.156 for the first, -0.374 for the second.

Compared with RRIRERPPRLPRPRPRPLMAPRP, RRIRLRPPRLPRPRPRPQEVPRP is higher in “shrunken log2 fold change” value: -0.169 for the first, 0.0641 for the second.

Going from RRIRDRPPRLPRPRPRPAVAPRP to RRIRNRPPRLPRPRPRPQWVPRP, the “shrunken log2 fold change” value falls from 0.309 to 0.00681.

Compared with RRIRARPPRLPRPRPRPGINPRP, RRIRVRPPRLPRPRPRPNAYPRP is lower in “shrunken log2 fold change” value: -0.242 for the first, -0.572 for the second.

RRIRKRPPRLPRPRPRPYCSPRP and RRIRERPPRLPRPRPRPDLIPRP are within 0.2 log units of each other in “shrunken log2 fold change” value: -0.0347 for the first, -0.0979 for the second.

First: RRIRKRPPRLPRPRPRPCHMPRP
Second: RRIRHRPPRLPRPRPRPVRAPRP
The “shrunken log2 fold change” value of the first is lower: -0.538 for the first, 0.571 for the second.

Going from RRIRTRPPRLPRPRPRPVKGPRP to RRIRYRPPRLPRPRPRPCDVPRP, the “shrunken log2 fold change” value falls from -0.0154 to -0.739.

First: RRIRYRPPRLPRPRPRPPWPPRP
Second: RRIRERPPRLPRPRPRPCIVPRP
The “shrunken log2 fold change” value of the first is higher: 0.405 for the first, -0.427 for the second.

RRIRDRPPRLPRPRPRPHSPPRP and RRIRHRPPRLPRPRPRPYPMPRP are within 0.2 log units of each other in “shrunken log2 fold change” value: -0.264 for the first, -0.2 for the second.

Compared with RRIRERPPRLPRPRPRPTVIPRP, RRIRPRPPRLPRPRPRPNRKPRP is lower in “shrunken log2 fold change” value: -0.0209 for the first, -0.371 for the second.

First: RRIRKRPPRLPRPRPRPCNIPRP
Second: RRIRNRPPRLPRPRPRPIWIPRP
The “shrunken log2 fold change” value of the first is lower: -0.697 for the first, -0.0856 for the second.

RRIRIRPPRLPRPRPRPTSHPRP and RRIRTRPPRLPRPRPRPPCVPRP are within 0.2 log units of each other in “shrunken log2 fold change” value: -0.19 for the first, -0.121 for the second.

Compared with RRIRYRPPRLPRPRPRPKCYPRP, RRIRGRPPRLPRPRPRPEFKPRP is higher in “shrunken log2 fold change” value: -0.112 for the first, 0.741 for the second.

RRIRQRPPRLPRPRPRPFFRPRP and RRIRRRPPRLPRPRPRPNQKPRP are within 0.2 log units of each other in “shrunken log2 fold change” value: -0.236 for the first, -0.128 for the second.

Going from RRIRIRPPRLPRPRPRPCHQPRP to RRIRWRPPRLPRPRPRPSNDPRP, the “shrunken log2 fold change” value rises from -0.245 to 0.391.

First: RRIRERPPRLPRPRPRPISGPRP
Second: RRIRKRPPRLPRPRPRPDKHPRP
The “shrunken log2 fold change” value of the first is lower: -0.564 for the first, 0.0337 for the second.

Going from RRIRQRPPRLPRPRPRPFMTPRP to RRIRRRPPRLPRPRPRPSAAPRP, the “shrunken log2 fold change” value rises from -0.00963 to 1.13.

Compared with RRIRERPPRLPRPRPRPHWLPRP, RRIRRRPPRLPRPRPRPITAPRP is higher in “shrunken log2 fold change” value: -0.128 for the first, 0.148 for the second.

Compared with RRIRNRPPRLPRPRPRPHVRPRP, RRIRMRPPRLPRPRPRPAHMPRP is higher in “shrunken log2 fold change” value: -0.12 for the first, 0.281 for the second.

Going from RRIRNRPPRLPRPRPRPQDQPRP to RRIRSRPPRLPRPRPRPWWIPRP, the “shrunken log2 fold change” value rises from -0.222 to 0.0584.

RRIRCRPPRLPRPRPRPMPKPRP and RRIRFRPPRLPRPRPRPALTPRP are within 0.2 log units of each other in “shrunken log2 fold change” value: 0.0972 for the first, 0.248 for the second.

First: RRIRRRPPRLPRPRPRPRKHPRP
Second: RRIRVRPPRLPRPRPRPSHCPRP
The “shrunken log2 fold change” value of the first is higher: 0.535 for the first, 0.109 for the second.

Compared with RRIRWRPPRLPRPRPRPFVIPRP, RRIRARPPRLPRPRPRPAFKPRP is higher in “shrunken log2 fold change” value: -0.396 for the first, 0.126 for the second.

First: RRIRERPPRLPRPRPRPFMAPRP
Second: RRIRERPPRLPRPRPRPRIDPRP
The “shrunken log2 fold change” value of the first is lower: -0.891 for the first, -0.0634 for the second.

RRIRVRPPRLPRPRPRPLMWPRP and RRIRHRPPRLPRPRPRPQSFPRP are within 0.2 log units of each other in “shrunken log2 fold change” value: 0.157 for the first, 0.0133 for the second.

First: RRIRFRPPRLPRPRPRPCPFPRP
Second: RRIRKRPPRLPRPRPRPPGVPRP
The “shrunken log2 fold change” value of the first is lower: -0.988 for the first, 0.548 for the second.

Compared with RRIRDRPPRLPRPRPRPNKSPRP, RRIRCRPPRLPRPRPRPHEDPRP is higher in “shrunken log2 fold change” value: -0.534 for the first, -0.157 for the second.

First: RRIRCRPPRLPRPRPRPWAQPRP
Second: RRIRLRPPRLPRPRPRPAGMPRP
The “shrunken log2 fold change” value of the first is lower: -0.211 for the first, 0.213 for the second.

Going from RRIRARPPRLPRPRPRPVACPRP to RRIRSRPPRLPRPRPRPASQPRP, the “shrunken log2 fold change” value falls from 0.284 to 0.0365.

RRIRSRPPRLPRPRPRPWPIPRP and RRIRTRPPRLPRPRPRPKLFPRP are within 0.2 log units of each other in “shrunken log2 fold change” value: 0.0295 for the first, -0.0805 for the second.

For RRIRARPPRLPRPRPRPRFFPRP, the “shrunken log2 fold change” value was 0.453.
